Measured values: PMC2572193, “Structural Analysis of the Interactions Between Paxillin LD Motifs and α-Parvin” (Structure(London, England:1993), 2008)
“Also recorded” adds a separate entry of the source. Where a SMILES comes first, the peptide text is derived from it. Where no end group is shown, it is not given here. The star is where a group is joined. 5FAM = O=C1OC2(c3ccc(O)cc3Oc3cc(O)ccc32)c2ccc(C(=O)*)cc21

B1: 5-FAM-labeled LD1 peptide (paxillin residues 1-20) (peptide)
peptide: MDDLDALLADLESTTSHISK(5FAM)
notes: paxillin, human, LD1 motif, residues 1-20; also called fluorophore-labeled LD1 peptide; source: synthetic peptide, bought: Severn Biotech
B2: paxillin LD1 peptide (human paxillin residues 1-20) (peptide)
peptide: MDDLDALLADLESTTSHISK
notes: paxillin, human, LD1 motif, residues 1-20; source: synthetic peptide, bought: Severn Biotech
B3: paxillin LD3 peptide (human paxillin residues 213-232) (peptide)
peptide: VRPSVESLLDELESSVPSPV
notes: paxillin, human, LD3 motif, residues 213-232; source: synthetic peptide, bought: Severn Biotech
B4: paxillin LD2 peptide (human paxillin residues 141-160) (peptide)
peptide: NLSELDRLLLELNAVQHNPP
notes: paxillin, human, LD2 motif, residues 141-160; source: synthetic peptide, bought: Severn Biotech
B5: paxillin LD4 peptide (human paxillin residues 262-281) (peptide)
peptide: ATRELDELMASLSDFKFMAQ
notes: paxillin, human, LD4 motif, residues 262-281; source: synthetic peptide, bought: Severn Biotech

How the values were obtained:
[1] = molecular target: T1, α-parvin-CHC (residues 242–372) (Homo sapiens, UniProt Q9NVD7); assay: NMR 1H-15N HSQC titration of 15N-enriched α-parvin-CHC with LD peptides; type: binding; conditions: for KD / affinity range in words: NMR titration, 50 mM sodium phosphate, 100 mM NaCl, pH 6.9, 25°C
T1 construct: α-parvin-CHC (242–372) were subcloned; GST (N, cleaved yes); made in house; host or cells: Escherichia coli BL21
T1 sequence (Q9NVD7 242-372): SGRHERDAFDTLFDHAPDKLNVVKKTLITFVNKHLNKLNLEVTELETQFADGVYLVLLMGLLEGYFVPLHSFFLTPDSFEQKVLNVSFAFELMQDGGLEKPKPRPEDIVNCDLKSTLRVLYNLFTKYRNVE

[2] = Solubility of LD peptide noted in NMR titration; type: physicochemical; conditions: NMR titration buffer, 50 mM sodium phosphate, 100 mM NaCl, pH 6.9
Method: Figure S2. Determination of KD-Values for the Interaction of α−Parvin-CHC w ith LD Peptides […]
Titrations were performed with peptides representing the LD1 (A), LD 2(B), LD3 (C), LD4 (D), and […]
δ∆(1H15N) > 0.2 ppm for LD1 and LD2) were fitted globally to a single-site model (see experimental procedures). The errors refer to the fit only and exclude experimental errors. Note […]
respectively. No value could be derived for LD5 due to its low affinity. The KD-value for LD1 represents the weighted average over both antiparallel binding orientations, which exchange fast […]

[3] = molecular target: paxillin LD1 (Homo sapiens) (UniProt P49023); conditions: cited from earlier work
[4] = molecular target: T2, full-length human α-parvin (1-372) (human, UniProt Q9NVD7 1-372); assay: fluorescence polarisation; fluorescence anisotropy; 50 nM 5-FAM-labeled LD1 peptide, protein up to 300 μM; 100 mM potassium phosphate, 2 mM DTT, pH 8.0, 25°C; global fit to a single-site model; conditions: both partners purified
T2 construct: α-parvin, human, full length, residues 1-372; Expressed from pGEX-6P1 (EcoRI/EcoRI); also called full-length α-parvin; actopaxin; source: E. coli BL21, GST fusion, purified (glutathione sepharose, 3C-protease cleavage, MonoQ)
T2 sequence (looked up): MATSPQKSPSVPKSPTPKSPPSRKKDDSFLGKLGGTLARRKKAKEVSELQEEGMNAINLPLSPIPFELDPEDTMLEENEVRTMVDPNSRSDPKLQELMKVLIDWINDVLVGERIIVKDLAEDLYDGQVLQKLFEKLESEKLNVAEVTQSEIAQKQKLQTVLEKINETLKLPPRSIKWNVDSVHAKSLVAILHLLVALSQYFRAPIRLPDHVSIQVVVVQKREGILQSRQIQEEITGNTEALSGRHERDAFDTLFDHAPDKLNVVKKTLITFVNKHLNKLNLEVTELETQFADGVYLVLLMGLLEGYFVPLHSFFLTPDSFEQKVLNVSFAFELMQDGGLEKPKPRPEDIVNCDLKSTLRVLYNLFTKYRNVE

[5] = molecular target: T3, α-parvin-CHC (C-terminal calponin homology domain fragment of human α-parvin, residues 242-372) (human, UniProt Q9NVD7 242-372); assay: as above; conditions: both partners purified
T3 construct: α-parvin, human, residues 242-372: the entire C-terminal CH domain and a portion of the inter-CH domain linker; Expressed from pGEX-6P1 (BamHI/EcoRI); also called type-5 CH domain of α-parvin; actopaxin; source: E. coli BL21, GST fusion, purified (glutathione sepharose, 3C-protease cleavage, Superdex 75); 15N-enriched for NMR
T3 sequence (looked up): T1 sequence (Q9NVD7 242-372)

[6] = molecular target: T3, α-parvin-CHC (C-terminal calponin …); assay: NMR titration; 1H-15N HSQC of 235 μM 15N-enriched α-parvin-CHC titrated with LD peptide; 50 mM sodium phosphate, 100 mM NaCl, 2 mM DTT, 5% D2O, pH 6.9, 25°C; global fit to a single-site model; conditions: both partners purified

Row | Molecule | KD / affinity range in words [1] | Kd [6] | other results
1 | PROXYL-labeled LD1: N-terminally blocked LD1 with N-terminal methionine replaced by cysteine, labeled with 3-maleimido-PROXYL (C(3‑maleimido‑PROXYL)DDLDALLADLESTTSHISK; also: N-terminally blocked (group not given here)) |  |  | KD-value compared with underivatized LD1 peptide ([1]; data not shown): the same
2 | CC(C)C[C@H](NC(=O)[C@H](CCC(=O)O)NC(=O)[C@H](CC(=O)O)NC(=O)[C@H](CC(C)C)NC(=O)[C@H](CC(C)C)NC(=O)[C@H](CO)NC(=O)[C@H](CCC(=O)O)NC(=O)[C@@H](NC(=O)[C@H](CO)NC(=O)[C@@H]1CCCN1C(=O)[C@H](CCCNC(=N)N)NC(=O)[C@@H](N)C(C)C)C(C)C)C(=O)N[C@@H](CCC(=O)O)C(=O)N[C@@H](CO)C(=O)N[C@@H](CO)C(=O)N[C@H](C(=O)N1CCC[C@H]1C(=O)N[C@@H](CO)C(=O)N1CCC[C@H]1C(=O)N[C@H](C(=O)O)C(C)C)C(C)C [LD3] (H-VRPSVESLLDELESSVPSPV-OH) | relatively low affinity; also recorded: millimolar range |  | 
3 | PGSQLDSMLGSLQSDLNKLG [LD5] | low affinity; also recorded: millimolar range; also recorded: mM range ^a |  | 
4 | CC[C@H](C)[C@H](NC(=O)[C@H](Cc1c[nH]cn1)NC(=O)[C@H](CO)NC(=O)[C@@H](NC(=O)[C@@H](NC(=O)[C@H](CO)NC(=O)[C@H](CCC(=O)O)NC(=O)[C@H](CC(C)C)NC(=O)[C@H](CC(=O)O)NC(=O)[C@H](C)NC(=O)[C@H](CC(C)C)NC(=O)[C@H](CC(C)C)NC(=O)[C@H](C)NC(=O)[C@H](CC(=O)O)NC(=O)[C@H](CC(C)C)NC(=O)[C@H](CC(=O)O)NC(=O)[C@H](CC(=O)O)NC(=O)[C@@H](N)CCSC)[C@@H](C)O)[C@@H](C)O)C(=O)N[C@@H](CO)C(=O)N[C@@H](CCCCN)C(=O)O [LD1] (H-MDDLDALLADLESTTSHISK-OH) | micromolar range |  | 
5 | CSCC[C@H](NC(=O)[C@H](Cc1ccccc1)NC(=O)[C@H](CCCCN)NC(=O)[C@H](Cc1ccccc1)NC(=O)[C@H](CC(=O)O)NC(=O)[C@H](CO)NC(=O)[C@H](CC(C)C)NC(=O)[C@H](CO)NC(=O)[C@H](C)NC(=O)[C@H](CCSC)NC(=O)[C@H](CC(C)C)NC(=O)[C@H](CCC(=O)O)NC(=O)[C@H](CC(=O)O)NC(=O)[C@H](CC(C)C)NC(=O)[C@H](CCC(=O)O)NC(=O)[C@H](CCCNC(=N)N)NC(=O)[C@@H](NC(=O)[C@H](C)N)[C@@H](C)O)C(=O)N[C@@H](C)C(=O)N[C@@H](CCC(N)=O)C(=O)O [LD4] (H-ATRELDELMASLSDFKFMAQ-OH) | micromolar range |  | solubility (in words) [2]: poor solubility
6 | CC(C)C[C@H](NC(=O)[C@H](CCC(=O)O)NC(=O)[C@H](CC(C)C)NC(=O)[C@H](CC(C)C)NC(=O)[C@H](CC(C)C)NC(=O)[C@H](CCCNC(=N)N)NC(=O)[C@H](CC(=O)O)NC(=O)[C@H](CC(C)C)NC(=O)[C@H](CCC(=O)O)NC(=O)[C@H](CO)NC(=O)[C@H](CC(C)C)NC(=O)[C@@H](N)CC(N)=O)C(=O)N[C@@H](CC(N)=O)C(=O)N[C@@H](C)C(=O)N[C@H](C(=O)N[C@@H](CCC(N)=O)C(=O)N[C@@H](Cc1c[nH]cn1)C(=O)N[C@@H](CC(N)=O)C(=O)N1CCC[C@H]1C(=O)N1CCC[C@H]1C(=O)O)C(C)C [LD2] | micromolar range |  | 
7 | α-parvin CHC (from UniProt Q9NVD7) |  |  | Kd [3]: 1.2 mM
8 | B1 |  |  | Kd [4]: 130 ± 22 µM; Kd [5]: 120 ± 20 µM
9 | B2 |  | 96 ± 2 µM | 
10 | B3 |  | 2300 ± 100 µM | 
11 | B4 |  | 204 ± 3 µM | 
12 | B5 |  | 140 ± 30 µM | 
